Data reported in patent publication US6890900B2, “Methods for treating or preventing diseases of the oral cavity” (Campina B.V., priority 2001, dated 2005).

Assays:
[1] = system: Streptococcus mutans ATCC #33535; assay: LF/GMP assay, viable plate count (pour plate) of broth culture; assay type: cell-based; details: 35° C.; for Colony Counts: viable plate count
Procedure: (§1) Bacterial strains used in this study were Pseudomonas aeruginosa ATCC #27853, Streptococcus mutans ATCC #33535, Streptococcus pyogenes ATCC #19615, and Actinobacillus haemophilus ATCC #43717 and an oral swab from a healthy adult. Bacteria were grown on blood/BHT media (Brain Heart Infusion Agar with protease peptone, sodium chloride, glucose, di-sodium phosphate, and agar, Oxoid, Hampshire England, Sheep's Blood) in the presence of 5% CO2 at 35° C. […] One ml of the appropriate bacterial dilution was taken using a sterile pipette and introduced into 8 ml of sterilized BHI broth. […] By pipette, 9 ml of broth was placed into medium test tubes as means of a control and 8 ml test tubes were prepared for the concentration tests). […] This solution was filtered through a 0.45 μm filter. […] To study the kinetics of LF/GMP binding, each strain of bacteria was taken separately with a sterile pipette and placed into an 8 ml BHI broth test tube, vortexed, and incubated in the presence of 1 ml of LF or GMP for 18-24 hours at 35° C. with 5% CO2. In the combination procedure, 0.5 ml of both LF and […] were taken as 1 ml inoculations. One mL of each bacterial strain, plus one mL of sialic acid solution (1,000 ppm) were inoculated into test tubes filled with 8 mL of BHI broth. Each test tube was vortexed, incubated for 24 hours at 35° C. with 5% CO2, and then pour plated in BHI agar to obtain a plate count. This technique was used to determine the density of living (viable) cells in inoculated broth cultures. It involves plating a bacterial sample and counting the resulting colonies after incubation. A serial dilution of the original broth was taken prior to plating. The serial dilution is necessary to reduce the density of organisms in order to create countable plates. Only plates containing between 25 and 250 colonies are considered countable. Cell densities are traditionally recorded as CFU (colony forming unit)/ml. […] Formula: [formula] The assays required the use of a pour plate technique. The pour plate technique adds a step to the conventional serial dilution. The 1 ml of dilution is added to a warm emulsion of dilute nutrient (BHI) agar to produce an agar overlay in the petri plates. After incubation, the bacterial growth covers the entire plate but individual cellular movement has been restricted by the soft agar overlay. Each colony formed is assumed to have originated from a single CFU. The plates were gently mixed, inverted, and incubated for 18-24 hour at 35° C. Using a control (one broth tube inoculated with a bacterial strain, but no LF), the effectiveness of LF was examined. Each test tube containing a specified amount of LF (50, 100, 250, 500, 1,000 ppm and 3000 ppm) was diluted and plates were poured. […] A. haemophilus, S. mutans, S. pyrogenes and an oral culture were tested at 35° C. Pseudomonas aeruginosa was tested at both room temperature and 35° C. with 5% CO2. This was done because P. aeruginosa is not strictly an oral pathogen. It is commonly found in the environment in various conditions. It can be found in the environment and oral intake can cause inflammation in the oral cavity. Most normal oral bacteria are only found in the mouth and are not taken in from outside factors. Therefore, P. aeruginosa is a threat in both temperature settings. […] (see Table 2).

[2] = system: Actinobacillus haemophilus ATCC #43717; assay: as above; assay type: cell-based; details: 35° C.; for Colony Counts: viable plate count
Procedure: as §1

[3] = Lactoferrin/GMP 250/0 ppm (LF alone)
[4] = Lactoferrin/GMP 3,000/0 ppm (LF alone)
[5] = Lactoferrin/GMP 3,000/0 ppm (LF alone), listed as Lactoferrin

B1: LF: Bovine lactoferrin, iron-binding glycoprotein purified from milk, provided by DMV International (protein, UniProt P24627 20-708, looked up)
Lactotransferrin: APRKNVRWCTISQPEWFKCRRWQWRMKKLGAPSITCVRRAFALECIRAIAEKKADAVTLDGGMVFEAGRDPYKLRPVAAEIYGTKESPQTHYYAVAVVKKGSNFQLDQLQGRKSCHTGLGRSAGWIIPMGILRPYLSWTESLEPLQGAVAKFFSASCVPCIDRQAYPNLCQLCKGEGENQCACSSREPYFGYSGAFKCLQDGAGDVAFVKETTVFENLPEKADRDQYELLCLNNSRAPVDAFKECHLAQVPSHAVVARSVDGKEDLIWKLLSKAQEKFGKNKSRSFQLFGSPPGQRDLLFKDSALGFLRIPSKVDSALYLGSRYLTTLKNLRETAEEVKARYTRVVWCAVGPEEQKKCQQWSQQSGQNVTCATASTTDDCIVLVLKGEADALNLDGGYIYTAGKCGLVPVLAENRKSSKHSSLDCVLRPTEGYLAVAVVKKANEGLTWNSLKDKKSCHTAVDRTAGWNIPMGLIVNQTGSCAFDEFFSQSCAPGADPKSRLCALCAGDDQGLDKCVPNSKEKYYGYTGAFRCLAEDVGDVAFVKNDTVWENTNGESTADWAKNLNREDFRLLCLDGTRKPVTEAQSCHLAVAPNHAVVSRSDRAAHVKQVLLHQQALFGKNGKNCPDKFCLFKSETKNLLFNDNTECLAKLGGRPTYEEYLGTEYVTAIANLKKCSTSPLLEACAFLTR
Colony Counts ([1]; 50 ppm, 24 h): 1.9 × 10^8 | Colony Counts ([1]; 100 ppm, 24 h): 1.9 × 10^8 | Colony Counts ([1]; 250 ppm, 24 h): 1.7 × 10^8 | Colony Counts ([1]; 500 ppm, 24 h): 1.4 × 10^8 | Colony Counts ([1]; 1,000 ppm, 24 h): 1.2 × 10^8 | Colony Counts ([1]; 3,000 ppm, 24 h): 5.5 × 10^7 | Total Log Reduction [1, 3]: 0 log | Total Log Reduction [1, 4]: one log | Total Log Reduction [1, 5]: 1 log | # Log Reductions ([1]; at the MIBC, vs control): 1 log | MIBC ([1]; single agent, 24 h, 5% CO2): 3,000 ppm | Colony Counts ([2]; 50 ppm, 24 h): 2.6 × 10^8 | Colony Counts ([2]; 100 ppm, 24 h): 2.5 × 10^8 | Colony Counts ([2]; 250 ppm, 24 h): 2.5 × 10^8 | Colony Counts ([2]; 500 ppm, 24 h): 2.3 × 10^8 | Colony Counts ([2]; 1,000 ppm, 24 h): 2.4 × 10^8 | Colony Counts ([2]; 3,000 ppm, 24 h): 5.3 × 10^7 | Total Log Reduction [2, 3]: 0 log | Total Log Reduction [2, 4]: one log | Total Log Reduction [2, 5]: 1 log | # Log Reductions ([2]; at the MIBC, vs control): 1 log | MIBC ([2]; single agent, 24 h, 5% CO2): 3,000 ppm
